The values that follow come from US20030162714A1 (Pfizer, published 2003).

The assay addresses T1, recombinant purified GDF-8 (UniProt O14793 267-375, limits assumed).
T1 sequence (looked up): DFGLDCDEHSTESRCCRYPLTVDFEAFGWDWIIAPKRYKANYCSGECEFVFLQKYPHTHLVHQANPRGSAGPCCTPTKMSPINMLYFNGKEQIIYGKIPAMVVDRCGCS
Nature of the assay: cell-based or functional assay.

B1: mouse GASP1 cloned with a C-terminal V5-His tag (GASP1-V5-His) (other, not shown: small tags and cut ends)
chain: LPPIRYSHAGICPNDMNPNLWVDAQSTCKRECETDQECETYEKCCPNVCGTKSCVAARYMDVKGKKGPVGMPKEATCDHFMCLQQGSECDIWDGQPVCKCKDRCEKEPSFTCASDGLTYYNRCFMDAEACSKGITLSVVTCRYHFTWPNTSPPPPETTVHPTTASPETLGLDMAAPALLNHPVHQSVTVGETVSFLCDVVGRPRPELTWEKQLEDRENVVMRPNHVRGNVVVTNIAQLVIYNVQPQDAGIYTCTARNVAGVLRADFPLSVVRGGQARATSESSLNGTAFPATECLKPPDSEDCGEEQTRWHFDAQANNCLTFTFGHCHHNLNHFETYEACMLACMSGPLATCSLPALQGPCKAYVPRWAYNSQTGLCQSFVYGGCEGNGNNFESREACEESCPFPRGNQHCRACKPRQKLVTSFCRSDFVILGRVSELTEEQDSGRALVTVDEVLKDEKMGLKFLGREPLEVTLLHVDWTCPCPNVTVGETPLIIMGEVDGGMAMLRPDSFVGASSTRRVRKLREVMYKKTCDVLKDFLGLQ
On to B1, for which the “IC50 for inhibition of GDF-8 in the reporter gene assay ((CAGA)12 luciferase, RD cells, 20 ng/ml GDF-8)” value is ~3 nM.
